Measured values: US20070218051A1, “Epitope peptides immunogenic against Streptococcus pneumoniae” (Sarvamangala J N Devi, priority 1998, published 2007)

Columns and labels:
[1] = test system: S. pneumoniae type 3 strain, WU2; experiment: Protection experiment, Example 5: active immunization of xid mice, challenge with WU2; format: in vivo, Streptococcus pneumoniae; settings: CBA/CaHN/J xid mice immunized with 21 μg s.c. in CFA plus 100 μg IP boost; IV challenge 140 CFU WU2
Experimental: Twenty CBA/CaHN/J mice carrying the xid mutation were injected according to the following protocol:
1. All mice were bled prior to immunization to establish baseline immunity. Ten test mice were immunized subcutaneously in four sites with a total of 21 μg of 37-kDa protein antigen (pneumococcal fimbrial protein A) emulsified in Complete Freund's adjuvant (CFA). Ten control mice were immunized identically with CFA and buffer substituting for the antigen.
2. Fourteen days later, the mice were boosted intraperitoneally (IP) with 100 μg of the 37-kDa protein antigen (test mice) or with buffer (controls). No adjuvant was used with this booster immunization.
3. Eight days later, all mice were bled via the infraorbital sinus and the were collected and pooled into the two groups (immunized and controls). At the same time, blood was collected from individual mice to assay for antibody responses.
6. At the same time, the eighteen (8 test and 10 control) mice were challenged I.V with the same culture of WU2.
7. Deaths were tallied daily.

[2] = test system: virulent capsular type 3 Streptococcus pneumoniae strain, WU2; experiment: Protection experiment, Example 4: active immunization of xid mice, challenge with WU2; format: in vivo; settings: CBA/CaHN/J xid mice; about 22 μg s.c. in CFA, 100 μg IP 14 days later; IV challenge 60 CFU WU2; observed 21 days
Experimental: CBA/CaHN/J Mice. X-linked immune deficiency (xid) CBA/N mice as described by Wicker et al., Curr. Top. Microbiol, Immunol. 124:86-[0] were used to study the protection afforded by the 37-kDa protein.
Twenty CBA/CaHN/J mice carrying the xid mutation […] immunodeficiency) were used in this protection study. They were tested for protection against challenge with a virulent capsulan type 3 Streptococcus pneumoniae strain, WU2. Mice were anesthetized with Ketamine/Rompum and bled infraorbitally to obtain pre-immunization sera. 37-kDa protein (pneumococcal surface adhesin A) was emulsified in complete Freund's adjuvant (CFA) to a protein concentration of 54 μg per ml. Ten mice were injected subcutaneously into 2 axillary and 2 inguinal sites at 0.1 ml per site, delivering approximately 22 μg protein/mouse. Ten control mice were treated identically with CFA and buffer substituting for protein. Fourteen days later, the ten test mice were injected intraperitoneally (IP) with 100 μg of the 37-kDa protein; controls were injected IP with buffer. Eight days following the IP immunizations, all mice were bled infraorbitally to obtain post-immunization sera, and challenged intravenously (IV) with 60 CFU of a log phase culture of S. pneumoniae strain WU2. […]

B1: 37-kDa protein: 37-kDa species-common S. pneumoniae protein, pneumococcal surface adhesin A (PsaA), used as immunogen (protein)
chain: CASGKKDTTSGQKLKVVATNSIIADITKNIAGDKIDLHSIVPIGQDPHEYEPLPEDVKKTSEADLIFYNGINLETGGNAWFTKLVENAKKTENKDYFAVSDGVDVIYLEGQNEKGKEDPHAWLNLENGIIFAKNIAKQLSAKDPNNKEFYEKNLKEYTDKLDKLDKESKDKFNKIPAEKKLIVTSEGAFKYFSKAYGVPSAYIWEINTEEEGTPEQIKTLVEKLRQTKVPSLFVESSVDDRPMKTVSQDTNIPIYAQIFTDSIAEQGKEGDSYYSMMKYNLDKIAEGLAK
[1]
  No. Dead/Total No. Challenged: 0/8
[2]
  survived (mice surviving/total): 10/10
